# According to paper PMC9630320, “Interaction between DLC-1 and SAO-1 facilitates CED-4 translocation during apoptosis in the Caenorhabditis elegans germline” (Cell Death Discovery, 2022):
# T1: Trx-His6-DLC-1, Q22799
# T1 chain: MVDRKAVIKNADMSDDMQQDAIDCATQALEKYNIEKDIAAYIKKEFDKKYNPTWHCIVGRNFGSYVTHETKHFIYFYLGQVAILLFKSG
# Assays:
# SAO-1::RFP (C. elegans) = assay: FRET or BRET; fluorescence lifetime imaging (FLIM) of the GFP donor in live adult worms; TCSPC
# [1] = biological target: purified C-terminal region (residues 182–226) of SAO-1 (ITC) (C. elegans); assay: ITC; 25 °C; 50 mM Tris-Cl pH 7.5, 100 mM NaCl; 400 μM DLC-1 injected into 40 μM SAO-1; 13 titrations; one-site binding model
# [2] = biological target: SAO-1C1(182-205) peptide (crystal) (C. elegans); assay: crystal structure; sitting drop vapor diffusion at 16 °C; 0.2 M potassium chloride, 0.05 M HEPES pH 7.5, 35% pentaerythritol propoxylate; 2.4 Å
# [3] = biological target: the molecule itself; assay: as above
# Trx-His6-DLC-1, Q22799 = biological target: T1, Trx-His6-DLC-1, Q22799; assay: pull-down (GST pull-down, Western blot with His antibody, band quantification); settings: chain shown with the change;; parent: est. 1.0; read off a plot
molecule,measurement,setting,value
DLC-1::GFP (from UniProt Q22799 1-89) (natural protein),GFP mean fluorescence lifetime (τ) with SAO-1::RFP,SAO-1::RFP (C. elegans),2.85 ns
full-length DLC-1 (ITC and crystallography) (from UniProt Q22799 1-89) (natural protein),Kd,[1],500 nM
same,stoichiometry N (DLC-1 per SAO-1),[1],2
same,stoichiometry N (DLC-1 per SAO-1),[2],2
"full-length DLC-1 (ITC and crystallography) (natural protein, C. elegans, UniProt Q22799 1-89, looked up, dynein light chain 1 (DLC-1), C. elegans; Same construct as m1; Forms dimers in the crystal) MVDRKAVIKNADMSDDMQQDAIDCATQALEKYNIEKDIAAYIKKEFDKKYNPTWHCIVGRNFGSYVTHETKHFIYFYLGQVAILLFKSG",binding result,[3],binds
GST-SAO-1 V187A; T189A (protein) MHKNGNNGPVIDTKWHYLGPDSEKYGPYMSKDMLFWLQAGYFNDGLQLKTENEPNYHTLGEWSQLLGTHPFSMPVHSLDATIAQMNSMRPHGAMMMVPPGLQNQFQPPMPMRFPPFLPMPLLHQMNQNGPPMGAQMHSQPPSEPIDAGSLSHTPDSENEFQGHGRKPHHHQQILAHQHIPQMQHANAAADQVVMKSVECQTEPVEISKEQASRVLSELLGQMVIIN,ratio to parent,"Trx-His6-DLC-1, Q22799",0.57
GST-SAO-1 C199A; Q200A; T201A (protein) MHKNGNNGPVIDTKWHYLGPDSEKYGPYMSKDMLFWLQAGYFNDGLQLKTENEPNYHTLGEWSQLLGTHPFSMPVHSLDATIAQMNSMRPHGAMMMVPPGLQNQFQPPMPMRFPPFLPMPLLHQMNQNGPPMGAQMHSQPPSEPIDAGSLSHTPDSENEFQGHGRKPHHHQQILAHQHIPQMQHANVATDQVVMKSVEAAAEPVEISKEQASRVLSELLGQMVIIN,ratio to parent,"Trx-His6-DLC-1, Q22799",0.15
